Measured values: publication PMC5025710, “The N-terminal domain plays a crucial role in the structure of a full-length human mitochondrial Lon protease” (Scientific Reports, 2016)
One block for each molecule: values may come before it.

What was measured:
[1] = target: proteolytically inactive human mitochondrial Lon protease mutant hLon S855A (human) (UniProt P36776); experiment: cryo-EM structure; hLon S855A incubated with 1 mM AMP-PNP, 1 mg/ml diluted 5× in buffer B (20 mM HEPES pH 8.0, 150 mM NaCl, 5 mM MgCl2); map at 15 Å
[2] = target: proteolytically inactive human mitochondrial Lon protease mutant hLon S855A (human) (UniProt P36776); experiment: cryo-EM structure; hLon S855A incubated with 1 mM ADP, 1 mg/ml diluted 5× in buffer B (20 mM HEPES pH 8.0, 150 mM NaCl, 5 mM MgCl2); map at 21 Å
[3] = target: the molecule itself; experiment: cryo-EM 2D class averages; hLonΔ270, 1 mg/ml diluted 5× in buffer B; 2D class averages (Relion) compared with projections of five and six fitted 3M6A subunits; no 3D map
[4] = target: T1, hLonΔ270 mutant (Δ1–270), human Lon lacking its first 270 amino acids (human) (UniProt P36776)
T1 sequence: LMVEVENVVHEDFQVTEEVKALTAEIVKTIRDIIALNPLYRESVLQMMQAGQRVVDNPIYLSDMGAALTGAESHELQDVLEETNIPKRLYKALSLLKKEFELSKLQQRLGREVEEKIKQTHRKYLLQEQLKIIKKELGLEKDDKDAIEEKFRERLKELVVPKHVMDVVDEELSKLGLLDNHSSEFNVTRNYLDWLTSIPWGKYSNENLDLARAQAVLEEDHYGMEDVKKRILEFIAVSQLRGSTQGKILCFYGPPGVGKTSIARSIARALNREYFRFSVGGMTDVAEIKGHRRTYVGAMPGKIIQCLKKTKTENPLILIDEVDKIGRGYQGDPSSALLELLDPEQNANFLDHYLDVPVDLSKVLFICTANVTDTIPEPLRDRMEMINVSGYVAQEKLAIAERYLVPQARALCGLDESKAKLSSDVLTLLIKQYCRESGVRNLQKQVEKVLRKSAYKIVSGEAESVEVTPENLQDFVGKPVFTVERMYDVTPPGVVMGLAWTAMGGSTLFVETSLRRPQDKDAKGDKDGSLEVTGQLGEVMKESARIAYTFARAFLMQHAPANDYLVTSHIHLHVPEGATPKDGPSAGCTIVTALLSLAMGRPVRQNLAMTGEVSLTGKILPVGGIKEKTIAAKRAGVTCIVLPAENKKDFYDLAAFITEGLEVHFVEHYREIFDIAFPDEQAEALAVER

stoichiometry N [1]: 6
stoichiometry N [2]: 6
Molecule: proteolytically inactive human mitochondrial Lon protease mutant hLon S855A (from UniProt P36776 68-959) (enzyme)

B1: hLonΔ270 mutant (Δ1–270), human Lon lacking its first 270 amino acids (domain or fragment, UniProt P36776 271-959, looked up)
chain: T1 sequence
notes: primers Lon_271_FW and Lon_960_RV (to the stop codon); A few vector residues probably remain after PreScission cleavage (surmised from the primer); also called shortened hLon; source: in-fusion cloning into pOPINJ; not shown: 6×His-GST, N-terminal, cleaved
stoichiometry N [3]: 6

stimulation of the ATPase activity of hLonΔ270 by β-casein (25 μg β-casein, 5 μg hLon, 37 °C) [4]: 2 fold
stimulation of the peptidase activity of hLonΔ270 (glutaryl-Ala-Ala-Phe-MNA) by β-casein (25 μg β-casein, 5 μg hLon, 37 °C) [4]: 2 fold
B2: β-casein (natural protein)
chain: RELEELNVPGEIVESLSSSEESITRINKKIEKFQSEEQQQTEDELQDKIHPFAQTQSLVYPFPGPIPNSLPQNIPPLTQTPVVVPPFLQPEVMGVSKVKEAMAPKHKEMPFPKYPVEPFTESQSLTLTDVENLHLPLPLLQSWMHQPHQPLPPTVMFPPQSVLSLSQSKVLPVPQKAVPYPQRDMPIQAFLLYQEPVLGPVRGPFPIIV
